Experimental data taken from the DeepSol protein solubility set.

Test: soluble on expression in E. coli; label from the status in PepcDB or PDB records

**Q.** For “SERCDDWGLDTMRQIQVFEDEPARIKCPLFEHFLKFNYSTAHSAGLTLIWYWTRQDRDLEEPINFRLPENRISKEKDVLWFRPTLLNDTGNYTCMLRNTTYCSKVAFPLEVVQKDSCFNSPMKLPVHKLYIEYGIQRITCPNVDGYFPSSVKPTITWYMGCYKIQNFNNVIPEGMNLSFLIALISNNGNYTCVVTYPENGRTFHLTRTLTVKVVGSPKNAVPPVIHSPNDHVVYEKEPGEELLIPCTVYFSFLMDSRNEVWWTIDGKKPDDITIDVTINESISHSRTEDETRTQILSIKKVTSEDLKRSYVCHARSAKGEVAKAAKVKQKGNRCGQ”, which “soluble on expression in E. coli” value is on record?
**A.** soluble

**Q.** For “MGSDKIHHHHHHMSDVKGKNMTKKKPVLKRFNYRLNKLHVKNLKGIKDFTLNFEKDKLVTGIVGINGSGKSTLIHALACAFKPIGKATSKDFNRLSHFFTPNKDASWEGSEFEIEFEFDELTIKPNSEPTKKLINHTEVYSKKQGKKVSRWLPIYGRRHERESAYIGLHDLATLSEDKNAGRYKEYETEDLAHEASDKIKEDLVYILGRNYNRLTTCLVKQKDKVHTLFGLVFNGVEYSEHSMGAGEKRLLTILSALHNPKLAKGGLLLIDEIDVLLHGMAFKRLIERIIKRANENKIEVIFSTHRETIIDFKNDLLIYGVLNTGKGVIPMPHTHPQVMQQLTGVRTVPIEIYVEDDLATSVIETLLYQKHATHYVNITKFGTWSNAFAILAGKILMDSDISETLCVLDGDVCNTIEERTSECQRHLNGDDKNEHRQSMLNHIVEFKLANIAPQGSGGSPEYNIKIMFESIESDDPRVVELQRYSREMQGLEDWHVYFDILAETSGIRTARDKVLEAISETGQWNDYIVEISNWLDEKLKIYLPVRVQEEENLVTV”, which “soluble on expression in E. coli” value is on record?
**A.** not soluble

**Q.** With “VSGTRPAARRTNLTAAQNVVRSVDAEERIAWVSKALCRTTDPDELFVRGAAQRKAAVICRHCPVMQECAADALDNKVEFGVWGGMTERQRRALLKQHPEVVSWSDYLEKRKRRTGTAG” as the sequence, how does the “soluble on expression in E. coli” value read?
**A.** soluble

**Q.** Which “soluble on expression in E. coli” value does the source give for “MSLNGQNTISDIGDATEDQIKDVIQIMNDNIDKFLERQERVSLLVDKTSQLNSSSNKFRRKAVNIKEIMWWQKVKNITLLTFTIILEGHHHHHH” here?
**A.** not soluble

**Q.** Which “soluble on expression in E. coli” value does the source give for “MAKNSPQDLINREIFSTNLNMLMAKKNIKQIDIHNKLGIPKSTITGYVKGRSLPTAGNVQKLADFFGVLKSDIDPRFDSNNIETNSNIIPSTLQKVTSTLSQLEHKRQLNVLDYAETQLEQQNTVEEPQATYYTYNYYDHAASAGTGQYLNDVQVETIELPVDYDADFVIPVYGDSMEPEYHSGDYVFIKLSINLSDGDIGVFEYYGDAYIKQLVINDSGAFLHSLNDKYDDILIDRDSDFRIIGEVIGSFTSKS” here?
**A.** not soluble

**Q.** Which “soluble on expression in E. coli” value does the source give for “MPAPLSIVIPTLQAESSLPRLLEALIEGLPNGLIREVIVSDGGSQDATRAIAEAAGAQVLNGPPSRGGQLRHGCDAARGDWLLVLHADTLPDPGWAGVVADHIAAREDAACFRLAFRARGPGAAWVAGWANLRTRLFGLPYGDQGLLIRRRDYQTAGGYPDQLLMEDVHLVRALSRAPVLLPHRALTGAERYLRSGWLRRGARNLWTLMRYFAGTDPEALARAYRRLEHHHHHH” here?
**A.** not soluble

**Q.** Which “soluble on expression in E. coli” value does the source give for “MGSDKIHHHHHHMLFPDLANKIVREVRRLIKENIIIINIQGVIIASTDIERIGQFHEGALRCAKQKKTVIITKEDERRLQGVKAGMNLPLLFHDEVIGVIGITGEPENISQYGEILRKMTELLIHENYFLEQLELEHRSYEAFVFDWLQNTDWSPSFLDRAKTLGIDLYKKKQLILFSIDRNDTMLQRKVWQHVRNLLTKEHLFIRWGNDRFILFTATNSKEQTYQFLKRLKQDCETLFSVPLYIGIGQSVTPSNMNLSYEQALQALSVSLETKNIVFNEDLRLEMCLQDISAETREQFLKRTIENLLSSPELMHTLRLFIDYNQSYKQTAEQLHIHINTLHYRLKKIEEYTGLDPKQFKDLNILYFSLLLLDNHTKKNDKTD” here?
**A.** not soluble

**Q.** With “RLQSRILAGLLHTVVRYRRKVVRDNLTRCFPEKSLQEIRRIERRFYYNFTYQILSSFKLLTYSQAQLRRHISFENLDVLIRLRAEGHPAILLMMGHFGNWEYFSGSQAIIKDLGLQIYQIFRPLKSTSSDRLMHRIRERFGSRGIAKHDVPRELLRLVRNPIPTETP” as the sequence, how does the “soluble on expression in E. coli” value read?
**A.** not soluble

**Q.** With “MSNQSKLNSAAYDQLNKDADRILHLIKVQMDNLTLPSCPLYEEVLDTQMFGLQKEVDFAVQLGLVDKEDGKQLMLRLEKELSKLHEAFTNV” as the sequence, how does the “soluble on expression in E. coli” value read?
**A.** not soluble

**Q.** For “MKFRGNFVCQPRAGPAESRPTRPFTPRPSATGSLFMSNQHFVSPDLIRQGFSRAMSDMYREEVPLYGALMELVAEVNAQVLERQPALARHLQSSGELQRLDLERHGAIRVGSAAELATLARLFAVMGMQPVGYYDLTPAGVPVHSTAFRAVHEAALQVSPFRVFTSLLRLELIDNPELRSFAEQVLARRQIFTPQVLELIQQAEAAGGLDAEDAERFIRQALETFRWHHHATVTAAQYASLSAQHRLIADVVAFKGPHINHLTPRTLDIDEVQRLMPARGITPKAVIEGPPRRECPILLRQTSFKALEESVAFTDQAQSQGSHSARFGEIEQRGAALTPKGRELYDRLLNAARDALGDFPNEANAQRYNQLMQEHFREFPDSHPAMREQGLAYFRYFVSETGLAARNQPQRPTTLAALLAAGHLSAEPLVYEDFLPVSAAGIFQSNLGDDSQSHYAGQSNRQAFEAALGRPTLDELQLYAQTQQRSLEHCAATLGLPALLEHHHHHH”, which “soluble on expression in E. coli” value is on record?
**A.** not soluble

**Q.** With “LVTKEVEYEDGDTVCKGFIAYHSSASKPLPCVMVAHDWGGRGEGACNKARQLAGMGYIGFAIDMYGNAKLGKDKAEKRALMTPFRENRGKLITRINAAFNKVVQLPEVDSEKVAAIGYCFGGLCVLDLIRSGAPLKGVVSFHGVLLPLEGESNKSLNAKVLILHGYDDPLVPIEQVNQFAIEMTERKVDWQVHVYGQTAHSFTDPGANDDEMGLHYNKLADQRSWQSTQLFLQELF” as the sequence, how does the “soluble on expression in E. coli” value read?
**A.** not soluble

**Q.** With “MATIIFAGRSNVGKSTLIYRLTGKKVRRGKRPGVTRKIIEIEWKNHKIIDMPGFGFMMGLPKEVQERIKDEIVHFIEDNAKNIDVAVLVVDGKAAPEIIKRWEKRGEIPIDVEFYQFLRELDIPTIVAVNKLDKIKNVQEVINFLAEKFEVPLSEIDKVFIPISAKFGDNIERLKNRIFEVIRERQGRRV” as the sequence, how does the “soluble on expression in E. coli” value read?
**A.** soluble

**Q.** For “GPGSMAKHYKAIFAMSYEAELYAHLQASQRFNAGADAAVVLHADSDEAMRRHLGISIDPINGTNCCVGGVWQAPMTLVGIALDGVPIAGVMNRIFDYPLTCTYGPAATEPQEKACVPGLAVVLNTPTPASPFVVFDGGLVPAPGQMEQQLECTCETPLAVCRSSTTKEVFLQRLLTQLEPCNAVYSRGAGYKQYHLLKKMLTGRHVAHEAITPADIFVCPPGTIEKWDCCVVHAFLYALGGEIFDQNGVPIRYPLVGTYGAATTSLSEIAALTDGLVAVTPYAMHEVARRLGWTLTLAP”, which “soluble on expression in E. coli” value is on record?
**A.** not soluble

**Q.** Which “soluble on expression in E. coli” value does the source give for “SLSAASILVVDDEESLRITLAANLELEGHLVLEASSGDEALRLLRERAVDVVLTDIRMPGLHGVELHRHLRREHPGLPVVLMTAFAQESLINDALAEGAFTVLPKPFDVEHLLETLRREG” here?
**A.** soluble

**Q.** Which “soluble on expression in E. coli” value does the source give for “MTKVTREEVEHIANLARLQISPEETEEMANTLESILDFAKQNDSADTEGVEPTYHVLDLQNVLREDKAIKGIPQELALKNAKETEDGQFKVPTIMNEEDALEHHHHHH” here?
**A.** not soluble

**Q.** With “MLPTRSLLPFFLAPALLASAASQAAMEALDNDSLSQVTGQAGISLRLDLRAGAARVAWVDDGGSLSLRNLVIDNGCVKAGDCPDGRGGNIPLGAAQLGLSLPIFGVEQPTLALDVTTGSGGGQQLAISLPDLATINDQLIASGLPAQRIRLRVASDLYIGDNSIGRIELRDITDLRGTIKVWGH” as the sequence, how does the “soluble on expression in E. coli” value read?
**A.** not soluble

**Q.** For “MLPRGALVLNPFSEKAVSPEDRDMVLRRGIAALDCSWKKVKKSSVIFQTARNHRSLPFLVAANPTNYGKPCILSTAEAVAATLYIVGLKDIASDIMSYFKWGPHFLDLNRELLEAYSRAENSLEVVEIQKKFIGGLEHHHHHH”, which “soluble on expression in E. coli” value is on record?
**A.** not soluble

**Q.** With “MAHHHHHHMYDDVEVRRREEARQHTAASLIQRRWREHAERRSLEQDAAPLRGTGGNGVLLVASDAFGDVVGRRGGETDEALRPLKSDGFDELAQTVQTPEEKRRACVEEYRALLAKRKALLENNLVYQQLLSRHYAEQRRRNGEDEVAQLTTPDAEAAYWALVRQVAEERQRVAARSTALKKDLELQRQRYEPIMEEAATQERNFQQYIQELAASVRFMRSNRPIPTEAIEKYIELEAVQRSAIHASRVRYLQLKNRLLRLRRVAKGGAALSSSAPTATAAATGQDGEESNAANHHMFLIDFEQLKVENTSLNEKIEERSEEVLKLRNKVTNTIHIATHVREKLDCVRAENAELRQHVASTDEELGGARDQLAKSKRRRDAHLRANTRMKERMPLVGSRDLLMDYEKRKAVIYNYRTRLVQLTDRHKELTDSIKKEESTIVSLQHELSHYPK” as the sequence, how does the “soluble on expression in E. coli” value read?
**A.** not soluble

**Q.** Which “soluble on expression in E. coli” value does the source give for “MAQMKDNNVSNRATLVLYENRFIPLYRMIKEELIRFVQKKGIKSGMALPGDNELASQFGVSVGTVRRAIAELVSERIVIRQQGRGTFLAPYDTSRMLNSFWHIERRDGVVDVPLVSTHGFSQASATEEVAQKLALQPGDPVFVIKNSMTMQGTPVLLDTIYVPVRTFEGLTREKLSARDATIYDFYREQYGINIVKTIDRVSATVADKDTAKRLGCKLGAPMLRILRVAYSFGDTPIEYRCSLLDSENHEYVDVTGGDTSRYG” here?
**A.** not soluble

**Q.** For “MGHHHHHHSHKDDTDPGQLKGLSAHTHVELPYYSKFILIAAYLASYNPARTDKRFFLKHHGKIKKTNFLKKHEKTSNHLLGPKPFPLDRLLAILYSIVDSRVAPTANIFSQITSLVTLQLLTLVGHDDQLDGPKYKCTVSLDFIRAIARTVNFDIIKYLYDFL”, which “soluble on expression in E. coli” value is on record?
**A.** not soluble

**Q.** With “MGHHHHHHHHHHSSGHIDDDDKHMKNKKDKGLLSGKLTPAQSKNPAKNELYLVEGDSAGGSAKQGRDRKFQAILPLRGKVINTAKAKMADILKNEEINTMIYTIGAGVGADFSIEDANYDKIIIMTDADTDGAHIQTLLLTFFYRYMRPLVEAGHVYIALPPLYKMSKGKGKKEEVAYAWTDGELEELRKQFGKGATLQRYKGLGEMNADQLWETTMNPETRTLIRVTIEDLARAERRVNVLMGDKVEPRRKWIEDNVKFTLEEATVF” as the sequence, how does the “soluble on expression in E. coli” value read?
**A.** soluble

**Q.** For “AIIWRRAANLVLLDETGRRVDDLAFRSERADLAVIAGEGAERAVPEALEILSAARPILNRVRGLVRMGERRWDIVLDRGQRVLLPVEDPVAAVERMIALDEAEDLLDRDVISVDLR”, which “soluble on expression in E. coli” value is on record?
**A.** not soluble

**Q.** Which “soluble on expression in E. coli” value does the source give for “METKPYLIALDLDGTLLKDDKTISENTLHTIQRLKDDGHYVCISTGRPYRSSSMYYQQMELTTPIVNFNGAFVHHPQDDSWGRYHTSLPLDVVKQLVDISESYNVHNVLAEVIDDVYFHYHDEHLIDAFNMNTTNVTVGDLRENLGEDVTSVLIHAKEEDVPAIRSYLSDVHAEVIDHRRWAAPWHVIEIIKSGMNKAVGLQKISDYYGVPRERIIAFGDEDNDLEMLEFAGCGVAMGNGIDAVKQIANRTTATNEEDGVARFLKEYFSL” here?
**A.** soluble

**Q.** With “MAHHHHHHMLRIGRTLLAEVTTINSTTASVSGRLIRIRKKSKWIDRRSTRVPHNGKDIWYFGDQPSCALCHIRFRYKQDYEAHKESELHVNRLRWVETMNWWRETGEPAYLKASNEQWEWFEQHVLPTKAQEMGCTLDEARRVYRQAIMTETPTWHRPLQCPTVKQEVQEPRDQRWPASPKW” as the sequence, how does the “soluble on expression in E. coli” value read?
**A.** not soluble

**Q.** For “MGRVYYGGVERTYLYRGRILNLALEGRYEIVEHKPAVAVIALREGRMLFVRQMRPAVGLAPLEIPAGLIEPGEDPLEAARRQLAEETGLSGDLTYLFSYFVSPGFTDEKTHVFLAENLKEVEAHPDEDEAIEVVWMRPEEALERHQRGEVEFSATGLVGVLYYHAFLRGR”, which “soluble on expression in E. coli” value is on record?
**A.** soluble
